Literature values in patent publication US20250341526A1, “NOVEL DYES” (Quantum-Si Incorporated, priority 2024, published 2025).

B1: PS550: ClpS amino acid recognition protein, SEQ ID NO: 64 (protein, listed as Planctomycetes bacterium)
chain: MPTFTEPEVVNDTRILPPYHVILLNDDDHTYEYVIHMLQTLFGHPQERGFQLAVEVDKKGKAIVFTTSKEHAEFKRDQIHAFGADPLSSKNCKGSMSAVIEPSF
B2: PS546: ClpS amino acid recognition protein, SEQ ID NO: 60 (protein, listed as Planctomycetia bacterium)
chain: MSDTITLPGRPEVERDERTRRQPPYNVILHNDDDHTFEYVIVMLNQLFGYPPEKGYEMAKEVHLNGRVIVLTTSKEHAELKRDQIHAFGPDPFSSKDCKGSMSASIEPAY
B3: PS548: ClpS amino acid recognition protein, SEQ ID NO: 62 (protein, listed as Gemmataceae bacterium)
chain: MSDTITLPEEKTDVRTKRQPPYHVILLNDDDHTYQYVIYMLQTLFGHPPETGFKMAQEVDKTGRVIVDTTSLERAELKRDQIHAFGPDPYIERCKGSMSAMIEPSE
B4: PS434: ClpS amino acid recognition protein, SEQ ID NO: 57 (protein)
chain: MSRLPWKQEAKFAATVIIDFPDATLEAPTIEKKEATEQQIEMPWNVVVHNDPVNLMSYVTMVFQRVFGYPRERAEKHMLEVHHSGRSILWSGLRERAELYVQQLHGYLLLATIEKTV
B5: PS551: ClpS amino acid recognition protein, SEQ ID NO: 65 (protein, listed as Rubrobacter indicoceani)
chain: MPSAAPAKPKTKRQSRTQGMPPYNVVLLDDDDHTYGYVIEMLNKVFGHPPEKGFELATEVDKNGRVIVMTTNLEVAELKRDEVHAFGPDPLMPRSKGSMSAVVERAG
B6: PS430: ClpS amino acid recognition protein, SEQ ID NO: 53 (protein)
chain: MQPFEETYTDVLDEVVDTDVHNLVVFNDDVNTFDHVIETLIDVCKHTPEQAEQCTLLIHYKGKCSVKNGSWEELVPMRNEICRRGISAEVLK
B7: PS545: ClpS amino acid recognition protein, SEQ ID NO: 59 (protein, listed as Planctomycetales bacterium)
chain: MSEPMTLPAIPQPRLKERTQRQPPYNVILLNDDDHSYEYVIAMLQVLFGYPREKGYQMAKEVDSTGRVILLTTTREHAELKQEQIHAFGPDPLMARCQGSMTAVIEPAV
B8: PS549: ClpS amino acid recognition protein, SEQ ID NO: 63 (protein, listed as Planctomycetes bacterium)
chain: MSESITTLPKKSRRLKEEEEQKTKRQPPYNVILLNDDDHTFEYVIFMLQKLFGHPPERGMQMAKEVHTTGRVIVMTTALELAELKRDQIHAFGPDPLIDRCKGSMSATIEPAPI
B9: PS435: ClpS amino acid recognition protein, SEQ ID NO: 58 (protein)
chain: MTLSVALGPDTQESTQTGTAVSTDTLTAPDIPWNLVIWNDPVNLMSYVSYVFQSYFGYSETKANKLMMEVHKKGRSIVAHGSKEQVEQHAVAMHGYGLWATVEKATGGNSGGGKSGGPGKGKGKRG
B10: PS547: ClpS amino acid recognition protein, SEQ ID NO: 61 (protein, listed as Gemmataceae bacterium)
chain: MGFPTDFRQSIEISTPLGSQQPRFSNASSEPALADPVLVINPRIQPRYHVILLNDDDHTYRYVIEMMLIVFGHPPEKGFLIAKEVDKAGRAICLTTSLEHAEFKQEQVHAYGADPYFGPKCKGSMTAVLEPAE
B11: PS426: ClpS amino acid recognition protein, SEQ ID NO: 49 (protein)
chain: MSIIEKTQENVAILEKVSINHEIILYNDDVNTFDHVIETLIRVCNHEELQAEQCAILVHYTGKCAVKTGSFDELQPLCLALLDAGLSAEIT
B12: PS425: ClpS amino acid recognition protein, SEQ ID NO: 48 (protein)
chain: MTHYFSNILRDQESPKINPKELEQIDVLEEKEHQIILYNDDVNTFEHVIDCLVKICEHNYLQAEQCAYIVHHSGKCSVKTGSLDELVPKCNALLEEGLSAEVV
B13: PS558: ClpS amino acid recognition protein, SEQ ID NO: 72 (protein, listed as Planctomycetia bacterium)
chain: MTATTADPDRTTAEKTTKKARRSGQPKRQPRYHVILWNDNDHTYQYVVAMLQQLFGHPATTGLKLATEVDRTGRAVILTTTREHAELKRDQIHAFGADRLLARSKGAMSASIEPEAE
B14: PS559: ClpS amino acid recognition protein, SEQ ID NO: 73 (protein, listed as Planctomycetaceae bacterium)
chain: MNQAAISPNPDIKPNPSTHKKRASQRQPRYHVILWNDNDHTYHYVVTMLQKLFGHPPRTGIKMATEVDKKGKVIVLTTSREHAELKRDQIHAFGADKLIRRSKGAMAASIEPES
B15: PS433: ClpS amino acid recognition protein, SEQ ID NO: 56 (protein)
chain: MMSSLKECSIQALPSLDEKTKTEEDLSVPWKVIVLNDPVNLMSYVVMVFRKVFGYNENKATKHMMEVHQLGKSVLWTGQREEAECYAYQLQRWRLQTILEKDD
B16: PS372: ClpS amino acid recognition protein, SEQ ID NO: 5 (protein)
chain: MAFPARGKTAPKNEVRRQPPYNVILLNDDDHTYRYVIEMLQKIFGFPPEKGFQIAEEVDRTGRVILLTTSKEHAELKQDQVHSYGPDPYLGRPCSGSMTCVIEPAV
B17: PS560: ClpS amino acid recognition protein, SEQ ID NO: 74 (protein, listed as Planctomycetes bacterium)
chain: MTETITTPAERTQTQAEPRSDRAWLWNVVLLDDDEHTYEYVIRMLHTLFGMPVERAFRLAEEVDARGRAVVLTTHKEHAELKRDQVHAFGKDALIASCAGSMSAVLEPAECGSDDED
B18: PS557: ClpS amino acid recognition protein, SEQ ID NO: 71 (protein, listed as Planctomycetia bacterium)
chain: MPTAASATESAIEDTPAPARPEVDGRTKPKRQPRYHVVLWNDDDHTYQYVVVMLQSLFGHPPERGYRLAKEVDTQGRVIVLTTTREHAELKRDQIHAFGYDRLLARSKGSMKASIEAEE
B19: PS556: ClpS amino acid recognition protein, SEQ ID NO: 70 (protein, listed as Blastopirellula marina)
chain: MGDSNTSVAEPGEVTVVTTKPAPKKAKPKRQPKYHVVLWNDDDHTYEYVILMMHELFGHPVEKGFQIAKTVDADGRAICLTTTKEHAELKRDQIHAYGKDELIARCRGSMSSTIEPEC
B20: PS432: ClpS amino acid recognition protein, SEQ ID NO: 55 (protein)
chain: MIGVEARTSSAPELAIETEIRLAGLWHVIVINDPVNLMSYVVMVLRKIFGFDDTKARKHMLEVHENGRSIVWSGEREPAEAYANTLHQWHLSAVLERDETD
B21: PS553: ClpS amino acid recognition protein, SEQ ID NO: 67 (protein, listed as Planctomycetes bacterium)
chain: MPASASAVTEPPVSLPEAAAPRPKDRPKRQPRYHVILWNDDDHTYQYVVAMLRQLFGHPPEKGFTLAKQVDKDGRVVVLTTTKEHAELKRDQIHAFGADRLLARSKGSMSASIEPEASTG
B22: PS561: ClpS amino acid recognition protein, SEQ ID NO: 75 (protein, listed as Roseimaritima sp.)
chain: MAELQTAVVEPTTRPEQDEKQSQSRPKRQPRYNVILWDDPDHSYDYVIMMLKELFGHPRQRGHQMAEEVDTTGRVICLTTTMEHAELKRDQIHAYGSDEGITRCKGSMSASIEPVPE
B23: PS554: ClpS amino acid recognition protein, SEQ ID NO: 68 (protein, listed as Planctomycetia bacterium)
chain: MSDSASATVEVQADPPADATARSQPTPARSTGSKPKRQPRYHVVLWNDDDHTYEYVIAMLRRLFGIEPEKGFRIAEEVDQSGRAVVLTTTREHAELKRDQIHAFGADRLLARSKGSMSASIEPEA
B24: PS427: ClpS amino acid recognition protein, SEQ ID NO: 50 (protein)
chain: MSTKEKVKERVREKEAISFNNEIIVYNDDVNTFDHVIETLIRVCNHTPEQAEQCSLIVHYNGKCTVKTGSMDKLKPQCTQLLEAGLSAEIV
B25: PS555: ClpS amino acid recognition protein, SEQ ID NO: 69 (protein, listed as Planctomycetes bacterium)
chain: MADSAQTGVAEPIQETLRRRKLRDDRRPKRQPPYHVILWNDNDHTYAYVVVMLMQLFGYPAEKGYQLASEVDTQGRAVVLTTTKEHAELKRDQIHAYGKDGLIEKCKGSMWATIEPAPGE
B26: PS552: ClpS amino acid recognition protein, SEQ ID NO: 66 (protein)
chain: MSKTSTLPEVESESAQKLKYQPPYHVILLNDDDHSYVYVITMLKELFGHPEQKGYQLADAVDKQGRAIVFTTTREHAELKQEQIHAYGPDPTIPRCKGAMTAVIEPAE
modifications: Fimbriiglobus ruber

System: amino acid at a terminal position of a polypeptide
Details: Table 1, ClpS proteins; amino acid at terminal position; inferred from literature and/or demonstrated by the inventors; cited from earlier work

Molecule	Binding Pref.
B1	I, L, V
B2	I, L, V
B3	I, L, V
B4	F, Y, W, L
B5	I, L, V
B6	F, Y, W, L
B7	I, L, V
B8	I, L, V
B9	F, Y, W, L
B10	I, L, V
B11	F, Y, W, L
B12	F, Y, W, L
B13	I, L, V
B14	I, L, V
B15	F, Y, W, L
B16	L, I, V
B17	I, L, V
B18	I, L, V
B19	I, L, V
B20	F, W
B21	I, L, V
B22	I, L, V
B23	I, L, V
B24	F, W
B25	I, L, V
B26	I, L, V
